Test results from PMC6929169, “Functional Characteristics of Caffeoyl Shikimate Esterase in Larix Kaempferi and Monolignol Biosynthesis in Gymnosperms” (International Journal of Molecular Sciences, 2019).

Substrate: O=C(/C=C/c1ccc(O)c(O)c1)O[C@@H]1CC(C(=O)O)=C[C@@H](O)[C@H]1O
Test: HPLC-MS of caffeic acid formed, Michaelis-Menten fit
Assay type: biochemical, Larix kaempferi
Conditions: 100 mM NaPO4 buffer pH 6.0, 500 μM dithiothreitol, 0–320 μM substrate, 1 μg enzyme in 100 μL, temperature of kinetics not given

B1: LkCSE (Larix kaempferi) (protein)
chain: MSAVEKPAAPPNFWGEMPEEEYYASQGVKNHQERFETPHGILFTQSWIPIEGPVKGIVCMTHGYGSDTGWLFQKISITYAQWGYAVFGADLLGHGRSDGLRCYMGDMEKIAAASLFFFKAMRDSEPYKGLPAFLFGESMGGATTLLMYFQDPDGWSGLIFSAPLFVMPEPMKPSWWRLTAYGLLFGLADTWAVMPDNKMVKKAIKDPEKLKIIASNPRRYTGPPRVGTMRELCRICAFFQENFEKVTIPFLTCHGTSDEVTAPQSSTDLYEKAKSEDKTLKLYDDMYHSLIQGEPDENANQVLADMREWLDARASRTSS
Km: 82.08 µM
